The series in a line: amyloid nucleation score (Sup35N fusion, yeast selection) (log enrichment); library NNK1; higher = more nucleation; inactive = no reads after selection. The essentials:
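Sup35N fusions to peptides of 20 random codons were expressed in psi-negative yeast, induced 24 hours with 100 μM copper sulfate, and grown 7 days at 30°C on medium lacking adenine and uracil. Input and output plasmid inserts were sequenced by Illumina. The nucleation score is the DiMSum log enrichment of output over input reads, centred on the mode score of non-aggregating sequences. Sequences with under 100 input reads were excluded.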

Experimental findings from the supplement of paper PMC12042874 are described below.

± gives the uncertainty stated by the source.

The substance NAVINQ returned an amyloid nucleation score of 0.388 ± 0.73. Consider FFWCRSRLTLAF, for which the amyloid nucleation score was determined as 0.024 ± 0.35. Then TKVFGRYLVVSGRFCIIEKK, with -0.371 ± 0.38; and KFVHNYSLKYIKGVVSCQFL, with 0.727 ± 0.37. For the substance LSYMSLFW, the amyloid nucleation score was determined as 1.94 ± 0.16. Regarding NCKNVYCFKYASGIGERAFY, the amyloid nucleation score came out at 0.091 ± 0.42. On to ARWGFTWVKA, for which the amyloid nucleation score is 0.372 ± 1.4.

In turn, FRYKDGCSFSTAVDYSCRMF displayed an amyloid nucleation score of 1.06 ± 0.23. Consider TYTVGHYVAFWSRRVKSNES, for which the amyloid nucleation score worked out at 0.392 ± 0.67. MNFDCFPNSL returned an amyloid nucleation score of 1.22 ± 0.35. In the case of DRFGWF, the amyloid nucleation score is -0.148 ± 0.32. The substance FKESLGFMFMHDMSWDGLLV displayed an amyloid nucleation score of 0.224 ± 0.7. NREVYKMLLGCFSIHISCNR: the amyloid nucleation score entry was “inactive”. As to IDGLNNYTSYNGTR, the amyloid nucleation score was -0.219 ± 0.62. As for IMRRVLAFSCN, the amyloid nucleation score is -0.538 ± 0.34.

On to RYEGKVKHYFKFKIKPMQV, for which the amyloid nucleation score was 0.809 ± 0.41.

As to RHKYMWM, the amyloid nucleation score stood at 1.46 ± 0.81. Take MLQCYLLFARYLLRNLSWGW: the amyloid nucleation score was 0.59 ± 0.62.

Turning to QSWHEWDM, the amyloid nucleation score entry is “inactive”. In turn, GAIEASLVYRISNFKAGFAP gave an amyloid nucleation score of 1.91 ± 0.35. With WGMWSGLLFGEFWCS the figure was -0.424 ± 0.71; with SMFCARLDTRVSRTGFPDRG, -0.557 ± 0.61. The substance RFMSTSLFLMVSNELLSPLM yielded an amyloid nucleation score of 1.27 ± 0.16. For the substance HYWDYAISRIR, the amyloid nucleation score is -1.94 ± 2.4. Regarding FEQTIISLVSGYFQSSDYWS, the amyloid nucleation score was -0.596 ± 0.78. With ILIAKCSLPCYMKRGNAPCL, the amyloid nucleation score was 1.37 ± 0.59. As for FYCMLSSSSNFPSGNDRAYD, the amyloid nucleation score is -0.341 ± 0.5. RCGSPSAHNSIYMR registered an amyloid nucleation score of 1.34 ± 0.32. For the substance YSVLCIMRTLHAEIWFTGGI, the amyloid nucleation score is -0.023 ± 1.4. The substance TIFGHVRGSYETKWMWAPWR showed an amyloid nucleation score of 2.98 ± 0.12. With KRLLFKYRSVNRHTYLFIPV, the amyloid nucleation score is -0.616 ± 0.28. LLYISSTVM had an amyloid nucleation score of 1.07 ± 0.38. WYYYTVSSEGSNSAGTKLRG came in with an amyloid nucleation score of 0.376 ± 0.38.

YNYSRYIRERFWFYT had an amyloid nucleation score of 0.115 ± 0.38. For the substance YAKHFPVLRTCLLNSVWGQG, the amyloid nucleation score was determined as 1.33 ± 0.57.

As for CIDFKSSGAGSTMSWNLVFN, the amyloid nucleation score was -0.188 ± 0.48.

Substance FKVKIVKCLGMFLLTIASLL showed an amyloid nucleation score of 1.07 ± 0.39. In the case of YKMCFSKVYESTEPMMCTGV, the amyloid nucleation score is -0.904 ± 0.8. Take IEWRVKLRLLRCQYID: the amyloid nucleation score was -0.507 ± 0.34. On to SNSLCETWSRWWKRMFTDTF, for which the amyloid nucleation score is 0.179 ± 0.48. The substance RLSYISPPSVYLALSRSRMD had an amyloid nucleation score of 0.229 ± 0.75.

The substance VQDVYENFSSPQNIGVMRAS returned an amyloid nucleation score of 0.956 ± 0.81. LALPIFAFER: the amyloid nucleation score was -0.839 ± 0.46.

Regarding GKNFSTMAWP, the amyloid nucleation score was -1.25 ± 2.7. For TGQLDV, the amyloid nucleation score was 1.75 ± 0.58. As for SDVKF, the amyloid nucleation score stood at 2.95 ± 0.11.

With VSTCAAR, the amyloid nucleation score is -0.383 ± 0.95. Then ISNGFQSV, with -0.027 ± 0.81; and RRYHGGDWSLLVNQLN, with 0.374 ± 0.23. In the case of IWYSVWNSNGFSHSRHGQQR, the amyloid nucleation score entry was “inactive”.

For IGAHRNRIWIWYCPVVPNAT, the amyloid nucleation score came to 3.1 ± 0.2. With NLRLAWRGQTVCRETHKRPF, the amyloid nucleation score worked out at 2.37 ± 0.13. With NYEYRDYASDERLYGSGTML, the amyloid nucleation score came out at 0.103 ± 0.37. With LFVLKTWLRNSDWFRYDESQ the figure was -0.094 ± 0.68; with ASKKNIF, -0.304 ± 0.79. On to DVKCRLWIHAL, for which the amyloid nucleation score is -0.066 ± 0.54. Then YTRFVKGYTRNRFSRDTSAV, with -0.084 ± 0.28; and WWALIHRPMVRVLGVQRVD, with -0.297 ± 0.88. Then GKRGSTQDEAKR, with “inactive”; and FRRVVNVSCTLTHSWIILLM, with 0.042 ± 1.1.

Regarding GYTTLTQGL, the amyloid nucleation score is -0.513 ± 1.2. Take IAHFELMRHNVHLKWVESWL: the amyloid nucleation score was found to be 0.911 ± 0.27. For the substance EFYVLISV, the amyloid nucleation score is -1.23 ± 1.9. As for WSTNNCCYA, the amyloid nucleation score was -1.38 ± 2.1. On to IGFFPQDSYGFGLRTEINGL, for which the amyloid nucleation score amounted to 0.145 ± 0.69. KFKKFGSSDGLDCDRYILVG: the amyloid nucleation score is -0.799 ± 1.2.

For CLPCVCIVNFTLGYDKGVV, the amyloid nucleation score came out at 8.027 ± 0.048. On to VVSSAEQVHLGVVNGRRFLL, for which the amyloid nucleation score is -0.003 ± 0.74. MPEILSVRSF: the amyloid nucleation score is -0.943 ± 0.32. As for SRFMGTNN, the amyloid nucleation score is 0.102 ± 0.84.

As to SNSFRLGGSNNYPMSSAPGL, the amyloid nucleation score was -1.74 ± 2.4. RVSLSCIMKIYNFDKRVWLG: the amyloid nucleation score is 0.521 ± 0.97.

As for DLGKVVNCYFLFYR, the amyloid nucleation score was 1.51 ± 0.25. Then WVFVNYWSGSKNQ, with 2.96 ± 0.14; and WLMVLATGAYAMHWVVTSSL, with 2.98 ± 0.069; and RRSESCMFYVMWYGNRYLEG, with 0.638 ± 0.18. As to GTGCFRCTVSTVGSVFIRDE, the amyloid nucleation score was -0.27 ± 0.64. The substance LICNFRLSRYQSAVNVVYWV showed an amyloid nucleation score of 0.802 ± 0.14. As for HYEVYAARVPNHHAKDIFWV, the amyloid nucleation score is -0.024 ± 0.93. In turn, GYLCLGSCNRSVSLLSSTGS yielded an amyloid nucleation score of 0.407 ± 0.47.

As to ETITKVVQQLSRLDKLSTYW, the amyloid nucleation score came to 1.53 ± 0.26. As to FSYKIMTSGTCTTWRNAFFS, the amyloid nucleation score was -0.341 ± 0.33. Then QNIYFFKCAKHSKVNRSDMS, with 1.91 ± 0.55; and GRSSD, with -0.164 ± 0.84; and SLYLGNSGSDLGD, with 0.2 ± 1.1.

In the case of GYLLAERDLNIATARGSLLR, the amyloid nucleation score is -0.514 ± 0.65. Take DSLSGSICGFRLYALLFTLT: the amyloid nucleation score is -0.113 ± 0.53. As for KELIKCYLNM, the amyloid nucleation score is 0.463 ± 0.5. IGSFDYGSNLGQIYGHNMLK: the amyloid nucleation score was -0.685 ± 0.6. With DVDGEVRVLDFV the figure was -0.24 ± 0.45; with LYMICGVYCLDSGIRTMRTF, 5.51 ± 0.067; with ADANCFRGWSRHHRTITQLR, 0.296 ± 0.64. Take KVFYVLLHGSILSNRGMWQT: the amyloid nucleation score is -0.725 ± 1.2. DRFQNYFCILCFPFYANVCE showed an amyloid nucleation score of 2.71 ± 0.12. As to KDVMYTYFIAISDLGIRNPL, the amyloid nucleation score is 1.3 ± 0.56. GDVLVSTNHIGFFKGPG returned an amyloid nucleation score of 1.91 ± 0.27. In the case of VCIIIVYRIYLSYMCPISY, the amyloid nucleation score is -0.463 ± 0.37. In turn, NVGGFQSLPEYNSYRMRAEQ returned an amyloid nucleation score of 0.26 ± 0.56.

In turn, LTFCCIMYSIYHSQPDFCGL had an amyloid nucleation score of 2.37 ± 0.099. As for CIGWSNGAPRCNQGRQRDRG, the amyloid nucleation score was determined as 0.828 ± 0.66.

In the case of TVIGSSRGAPLIIKSGFIIE, the amyloid nucleation score is 4.25 ± 0.056.

As for ELERWLDQKGTLQLEDQTLV, the amyloid nucleation score was -0.724 ± 2.4.

Substance IKMDFTFICIRVRGV showed an amyloid nucleation score of 0.343 ± 1.4. Then VLVHKDSG, with -0.852 ± 0.71; and VTLAQKLLDF, with -0.421 ± 1.1; and VSVQMAGIF, with -0.863 ± 0.54. STFSLTSRASHKVPQDRYFP: the amyloid nucleation score was 0.353 ± 0.61.

For NGYWLSFWTSRY, the amyloid nucleation score is 1.63 ± 0.46. Consider HIGYCQSVSTFSR, for which the amyloid nucleation score turned out to be 10.2 ± 0.046.

For the substance KSERERRVLMQRSDECVKSF, the amyloid nucleation score is -0.297 ± 0.5. For YGSMVMDVEAR, the amyloid nucleation score was -0.001 ± 0.45. In the case of RGRDHCYTTDWNGYRVMVPL, the amyloid nucleation score came to 0.58 ± 0.51.

On to NVQGSHSCSISCYIMPGRAM, for which the amyloid nucleation score came out at 5.56 ± 0.077. In turn, GISWSRGWSAFLKCDRRTGC showed an amyloid nucleation score of 0.894 ± 0.8. With GISFY the figure was 1.28 ± 0.9; with AWNRYIFIPTLEFTVLCMWC, 6.139 ± 0.058; with KSFNVLCHIAVVPNRWVGRT, 2.49 ± 0.13.

In the case of NRFTHHSIR, the amyloid nucleation score was found to be 1.19 ± 0.84. For IKLFARGGI, the amyloid nucleation score worked out at 0.39 ± 0.59.

Take IIVGEFENLYNSAINVK: the amyloid nucleation score entry is “inactive”.

With GGTNAGRCMYGGRDI, the amyloid nucleation score was found to be 0.754 ± 0.7. As to FRKGDILRTFSMFKSKYTVG, the amyloid nucleation score turned out to be 0.839 ± 0.65.

Consider CFIRLNNWLF, for which the amyloid nucleation score is 1.59 ± 0.46.

As for SWRVCVMFDTL, the amyloid nucleation score is -0.987 ± 1.1.

SNSRGYSWRDTGTNLRGYPE: the amyloid nucleation score is -0.238 ± 1.5. Then HEFNR, with -0.936 ± 1.6; and KKSGRYESVSQGWYDRLLQF, with -0.667 ± 0.31. Take HFFDITLKADNSIILSLSKS: the amyloid nucleation score turned out to be 6.549 ± 0.057.

Consider YEYQEKFSFYIEVLGKDSLS, for which the amyloid nucleation score is -0.864 ± 0.41. With MDKLASLLSSKGCAIKGLRS, the amyloid nucleation score is -2.19 ± 1.3. With IYSNKRTNMLMCMYNSVRGH the figure was 0.243 ± 0.35. Consider HSRYWSNIHSRWLTGRVRWG, for which the amyloid nucleation score is -0.28 ± 0.51. In the case of ELTCWSGDGGVGGILVNVWT, the amyloid nucleation score stood at 0.565 ± 0.47. Turning to RTSSWPTLTHEALLRSGDLC, the amyloid nucleation score is -0.637 ± 0.48. YPLINTLDMHRLCRIYCVNE: the amyloid nucleation score is -0.514 ± 0.54.

In the case of SLYRIFRKASFESCGLEWFA, the amyloid nucleation score is 0.191 ± 0.66. Take SNSSVSW: the amyloid nucleation score was found to be 0.717 ± 0.57. YRVNWFYMQRCAIP: the amyloid nucleation score was -0.269 ± 0.86. With ENIDVENQLVYLFKICFGSM the figure was 3.09 ± 0.12. Regarding SVWLANCYGKYMGVVCYSKV, the amyloid nucleation score was 0.537 ± 0.32. Then ISCYVRISIILFLEKMVLRA, with 0.033 ± 0.24.
